For assay [1], the target named is T1, rhB7H1-Fc: fusion protein of the extracellular part of human B7-H1 (PD-L1) and mouse Fc gamma 1, R&D Systems … (human; mouse, UniProt Q9NZQ7 19-238).
T1 construct: extracellular domain; Bought product, made in NS0 cells; also called B7-H1 ectodomain; B7H1/hFc
The experiment in a line: ELISA, purified Nanobody titrated on coated rhB7H1-Fc (Example 5), OD 490 nm. How it is done: In short, 5 μg/ml B7-H1 ectodomain (rhB7H1-Fc, R&D Systems, Minneapolis, US, Cat #156-B7) or control Fc was immobilized on maxisorp microtiter plates (Nunc, Wiesbaden, Germany) and free binding sites were blocked using 4% Marvel in. PBS. […] […] Binding specificity was determined based on OD values compared to controls having received no Nanobody (low control). 17 out of the 96 selected clones were able to bind to B7-H1 with some specificity.
For orientation: In an ELISA, binding on a coated surface is turned into a signal by an enzyme label.

Assay [2] addresses T2, rhPDL2-Fc: fusion protein of the extracellular part of human PD-L2 and mouse Fc gamma 1, R&D Systems Cat … (human; mouse, UniProt Q9BQ51 20-220).
T2 construct: extracellular domain; Bought product, made in NS0 cells; also called PD-L2 ectodomain; PDL2/hFc
T2 sequence (looked up): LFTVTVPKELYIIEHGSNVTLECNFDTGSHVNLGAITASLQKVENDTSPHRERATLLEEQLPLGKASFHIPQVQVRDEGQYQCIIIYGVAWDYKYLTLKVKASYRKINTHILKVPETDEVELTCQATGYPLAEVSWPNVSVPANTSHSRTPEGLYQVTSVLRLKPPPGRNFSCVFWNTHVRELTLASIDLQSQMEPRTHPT
Put plainly: ELISA, Nanobody dilution series 1-3125 nM on coated PDL2/hFc, rabbit anti-VHH detection, OD 490 nm (Example 10). How it is done: (§1) In order to check for bispecific binding, the clones selected and screened for B7-H1 binding were tested for binding PD-L2 in an ELISA setup. In short, plates were coated with 100 μl (2 μg/ml) of PDL2/hFc (R&D Systems, Minneapolis, US, Cat #1224-PL) in PBS overnight at 4C. After washing, plates were blocked with 4% MPBS for 2 hours on a shaker, A dilution series of Nanobody (1-3125 nM) in 100 μl 2% Marvell/PBS was added and incubated for 1 hour on a shaker. After washing, detection was performed with 100 μl 1:5000 rabbit-anti-VHH in 2% Marvell/PBS for 1 hour on a shaker. After washing, anti-VHH antibody was detected with 100 μl 1:5000 DARPO (in 2% Marvell/PBS for 1 hour on a shaker). PO was detected with 100 μl OPD (add 1:1000 H₂O₂ before use). The reaction was stopped with 50 μM H₂SO₄ and absorption was read at 490 nm with a platereader.

Assay [3] addresses T1, rhB7H1-Fc: fusion protein of the …. Put plainly: ELISA, Nanobody dilution series 1-3125 nM on coated B7H1/hFc, rabbit anti-VHH detection, OD 490 nm (Example 11). How it is done: as §1, with “PD-L2” for “B7-H1”, “PD-L1” for “PD-L2”, “B7H1/hFc” for “PDL2/hFc”, “#156-B7)” for “#1224-PL)”, “shaker.” for “shaker,”, “μl 1 M” for “μM”
Assay [4] deals with T2, rhPDL2-Fc: fusion protein of the …. Put plainly: ELISA, purified Nanobody titrated on coated PD-L2-Fc (Example 9), OD 490 nm. How it is done: In short, 5 μg/ml PD-L2 ectodomain (R&D Systems, Minneapolis, US, Cat #1224-PL) was immobilized on maxisorp microtiter plates (Nunc, Wiesbaden, Germany) and free binding sites were blocked using 4% Marvel in PBS. Next, 10 μl of periplasmic extract containing Nanobody of the different clones in 100 μl 2% Marvel PBST were allowed to bind to the immobilized antigen. […] Binding specificity was determined based on OD values compared to controls having received no Nanobody (low control). 32 out of the 96 selected clones were able to bind to PD-L2 with some specificity.
Clones were selected for recloning in an expression vector derived from pUC119 which contained the LacZ promoter, a resistance gene for ampicillin or carbenicillin, a multicloning site and the gen3 leader sequence. In frame with the Nanobody® coding sequence, the vector coded for a C-terminal c-myc tag and a (His)6 tag. After expression, the obtained Nanobodies were purified via the His-tag on Talon beads. Purified Nanobodies were tested in ELISA for binding to PD-L2 as described.

T1 sequence (Q9NZQ7 19-238 limits assumed): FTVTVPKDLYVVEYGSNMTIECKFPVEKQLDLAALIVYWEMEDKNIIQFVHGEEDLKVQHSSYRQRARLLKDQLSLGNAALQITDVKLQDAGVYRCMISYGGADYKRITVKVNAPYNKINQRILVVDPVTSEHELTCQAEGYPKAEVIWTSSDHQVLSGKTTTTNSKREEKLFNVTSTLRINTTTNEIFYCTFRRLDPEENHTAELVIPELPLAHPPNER

B1: 104F5 (VHH)
VHH: EVQLVESGGGLVQPGGSLRLSCAASGFTLDYYAKCWFRQAPGKEREWVSCISSSDGSTYYADSVKGRFTISRDNAKNTVYLQMNSLKPEDTAVYFCAARHGGPLTVEYFFDYWGQGTQVTVSS
notes: purified via the His-tag; also called anti-B7H1 nanobody 104F5
Turning to B1, the binding result is “binds” in assay [1] and “no binding (tested: 3125 nM)” in assay [2].

B2: 103D3 (VHH)
VHH: EVQLVESGGGLVEPGGSLRLSCVASGFTFSSYDMSWVRQAPGKGLEWVSTINSGGGITYRGSVKGRFTISRDNAKNTLYLQMNSLKPEDTAVYYCENGGSSYRRGQGTQVTVSS
notes: also called anti-PDL2 nanobody 103D3
Take B2: the values for the binding result in assay [3] and in assay [4] were “no binding (tested: 3125 nM)” and “binds”, respectively.

B3: 103F10 (VHH)
VHH: EVQLVESGGGLVQAGGSLRLSCAASGRTFSSGTMGWFRRAPGKEREFVASIPWSGGRTYYADSVKDRFTISRDNAQNTVFLQMNSLKPEDTAVYYCAFKERSTGWDFASWGQGIQVTVSS
notes: also called anti-PDL2 nanobody 103F10
Regarding B3, the binding result in assay [3] and in assay [4] was “binds” each time.

B4: 104E12 (VHH)
VHH: EVQLVESGGGLVQPGGSLRLSCAASGFTFDYYAIGWFRQAPGKAREGVSCISGGDNSTYYADSVKGRFTISRDNAKNTVYLQMNSLKPEDTAVYYCATGGWKYCSGYDPEYIYWGQGTQVTVSS
notes: also called anti-B7H1 nanobody 104E12
Take B4: the binding result in assay [2] was “no binding (tested: 3125 nM)”.

B5: 104B10 (VHH)
VHH: EVQLVESGGGLVQAGGSLRLSCAASGSTFSQYDVGWYRQAPGKQRELVAFSSSGGRTIYPDSVKGRFTFSRDNTKNTVYLQMTSLKPEDTAVYYCKIDWYLNSYWGQGTQVTVSS
notes: also called anti-B7H1 nanobody 104B10
On to B5, for which the binding result in assay [1] and in assay [2] was “binds” throughout.

B6: 104D2 (VHH)
VHH: EVQLVESGGGLVQPGGSLRLSCAASGFTLDYYAIGWFRQAPGKEREWASSISSSDGSTYYADSVKGRFTISRDNAKNTVFLQMNSLKPEDTAVYSCAASQAPITIATMMKPFYDYWGQGTQVTVSS
notes: purified via the His-tag; also called anti-B7H1 nanobody 104D2
Consider B6, for which the binding result in assay [1] is “binds”.

B7: 103E2 (VHH)
VHH: EVQLVESGGGLVQAGGSLRLSCAASGSTFSNYVSNYAMGWGRQAPGTQRELVASISNGDTTNYADSVKGRFTISRDNAKNTVYLQMNSLKPEDTAVYYCFEHQVAGLTWGQGTQVTVSS
notes: also called anti-PDL2 nanobody 103E2
In the case of B7, the binding result in assay [3] was “no binding (tested: 3125 nM)”; in assay [4], “binds”.

B8: 104D7 (VHH)
VHH: EVQLVESGGGLVQAGGSLTISCAASGITFSDSIVSWYRRARGKQREWVAGISNGGTTKYAESVLGRFTISRDNAKNMVYLQMNGLNPEDTAVYLCKVRQYWGQGTQVTVSS
notes: also called anti-B7H1 nanobody 104D7
The EC50 (read off the curve) is the concentration at which the effect is half-maximal. Take B8: in assay [1], the binding result is “binds”. For the same molecule, the “EC50 (read off the curve)” value in assay [2] is roughly 0.03 µM.

For the origin of these results see patent US20110129458A1 (Ablynx, published 2011).
